According to article PMC11169542, “A probe for NIR-II imaging and multimodal analysis of early Alzheimer’s disease by targeting CTGF” (Nature Communications, 2024):
Ends that are not written are not given here.

Key:
[1] = Monitoring DGC in blood serum by ex vivo NIR-II imaging; design: species or system C57BL/6J mice; conditions: NIR-II imaging and ICP-MS quantification of DGC in mouse serum after tail vein injection
Method: The C57BL/6J mice (male and female) were injected with DGC (20 mg/kg) through the tail vein (n = 3). After injection, the blood samples were collected at 0.083, 0.25, 0.5, 1, 2, 4, 8, 10, 12, 24, and 48 h through the posterior orbital vein of the mice. The serum was obtained by centrifugation (1200×g for 5 min) to remove blood cells. The serum samples were observed through the In vivo Master (Grand-imaging Technology) equipped with an InGaAs camera C-RED2 (Firstlight) (λ ex = 808 nm, 1000 nm longpass (LP) filter (Edmund Optics)) camera to obtain the NIR-II image (exposure time: 50 ms). ImageJ software was used to process and analyze the images obtained in the experiment, and the DGC content in the sample was evaluated according to the fluorescence intensity of the sample.

CTGF = target: T1, CTGF (Homo sapiens, UniProt P29279); assay: ICP-MS of Au content in DGC-labelled human brain sections; design: The brain tissue samples of autopsy-confirmed AD patients were obtained from the Chinese Brain Bank Center; from tissue; host or cells: postmortem human brain sections (hippocampus, cortex) of AD patients and healthy controls; ICP-MS (Au content): unit not given here
T1 sequence (P29279 27-349): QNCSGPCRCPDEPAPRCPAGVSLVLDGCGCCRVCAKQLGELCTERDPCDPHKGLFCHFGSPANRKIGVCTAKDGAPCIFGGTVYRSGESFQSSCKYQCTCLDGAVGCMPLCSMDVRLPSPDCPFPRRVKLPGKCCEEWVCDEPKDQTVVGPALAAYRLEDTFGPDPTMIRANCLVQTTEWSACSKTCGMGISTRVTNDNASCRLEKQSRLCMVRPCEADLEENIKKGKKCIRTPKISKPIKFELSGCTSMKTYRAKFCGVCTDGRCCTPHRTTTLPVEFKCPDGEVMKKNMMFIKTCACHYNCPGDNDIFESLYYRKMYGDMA
Method: The brain tissue samples of autopsy-confirmed AD patients were obtained from the Chinese Brain Bank Center (CBBC) and Human Brain Bank, Central South University Xiangya School of Medicine. First, the brain sections were air-dried for 15 min at room temperature, followed by immersion in water. 5% H2O2 was applied for 15 min at room temperature. The sections were washed three times with PBS for 5 min each time. Then, tissue repair was performed using trypsin at a temperature of 37 °C for 5 min and washed three times with PBS. We chose 10% sheep serum to block for a duration of 20 min at 37°. Primary antibodies (CTGF antibody and Aβ antibody) were added to the sections overnight at 4 °C. FITC-labeled Goat Anti-Rabbit IgG (H + L) (1: dilution 1:200, Bioss, Cat#bs-0370R-FITC) was applied and incubated at 37 °C for 20 min in darkness. Subsequent washing steps involved rinsing the sections three times with PBS, each time lasting for 5 min while avoiding exposure to light. DAPI staining was performed, taking care to store the samples away from light during the 5-min procedure. Then observed by the CLSM system. Then, we chose the optimal incubation concentration of DGC (200 μM) was used to determine the conditions using DAB Horseradish Peroxidase Color Development Kit. After the brain sections were co-stained by DGC (200 μM) at 4 °C overnight, a DAB chromogenic agent was added to the brain tissue sections to explore whether DGC can catalyze DAB solutions to produce insoluble brown precipitate to attach the brain tissue sections with an optical microscope. Finally, the brain tissue sections were digested with aqua regia to measure the Au content by the ICP-MS system.

DGC: CTGF-targeting peptide-coated gold nanocluster: one Au26 gold nanocluster coated by eight DAG cyclic peptides, NIR-II and red fluorescence (CDAGRKQKC; also: cyclic peptide, ring not given here, eight peptides on one Au26 nanocluster via Cys Au-S bonds)
stability in blood circulation [1]: high stability during internal circulation | ICP-MS (Au content) (CTGF; AD 1, Cortex section stained with DGC): 16.9799 | ICP-MS (Au content) (CTGF; AD 1, Hippocampus section stained with DGC): 24.3713 | ICP-MS (Au content) (CTGF; AD 2, Cortex section stained with DGC): 28.448 | ICP-MS (Au content) (CTGF; AD 2, Hippocampus section stained with DGC): 30.5308 | Au Content (DGC) per cm^2 by ICP-MS (CTGF; Case 1 (healthy control, Thal 0) brain section, section 1): 0.1533 | Au Content (DGC) per cm^2 by ICP-MS (CTGF; Case 1 (healthy control, Thal 0) brain section, section 2): 0.3279 | Au Content (DGC) per cm^2 by ICP-MS (CTGF; Case 1 (healthy control, Thal 0) brain section, section 3): 0.1558 | Au Content (DGC) per cm^2 by ICP-MS (CTGF; Case 2 (healthy control, Thal 0) brain section, section 1): 0.09047 | Au Content (DGC) per cm^2 by ICP-MS (CTGF; Case 2 (healthy control, Thal 0) brain section, section 2): 0.265 | Au Content (DGC) per cm^2 by ICP-MS (CTGF; Case 2 (healthy control, Thal 0) brain section, section 3): 0.06474 | Au Content (DGC) per cm^2 by ICP-MS (CTGF; Case 3 (AD, Thal 1) brain section, section 1): 0.6218 | Au Content (DGC) per cm^2 by ICP-MS (CTGF; Case 3 (AD, Thal 1) brain section, section 2): 0.4537 | Au Content (DGC) per cm^2 by ICP-MS (CTGF; Case 3 (AD, Thal 1) brain section, section 3): 0.399 | Au Content (DGC) per cm^2 by ICP-MS (CTGF; Case 4 (AD, Thal 1) brain section, section 1): 0.5318 | Au Content (DGC) per cm^2 by ICP-MS (CTGF; Case 4 (AD, Thal 1) brain section, section 2): 0.7576 | Au Content (DGC) per cm^2 by ICP-MS (CTGF; Case 4 (AD, Thal 1) brain section, section 3): 0.7155 | ICP-MS (Au content) (CTGF; HC 1, Cortex section stained with DGC): 3.7846 | ICP-MS (Au content) (CTGF; HC 1, Hippocampus section stained with DGC): 2.83 | ICP-MS (Au content) (CTGF; HC 2, Cortex section stained with DGC): 3.7846 | ICP-MS (Au content) (CTGF; HC 2, Hippocampus section stained with DGC): 11.6586
